Experimental data from patent US20200368345A1.

Biological target: HLA-A*02:01 molecule (as used for thermal stability and structures) (human)
Assay: thermal stability of the peptide-HLA-A*02:01 complex

Row | Binder | Tm (temperature required to unfold 50% of the protein) of the pHLA-A*02:01 complex
1 | GLDNHTILL (modifications not checked) [BHA543-551 peptide] | 72 ° C.
2 | NMLSTVLGV (modifications not checked) [PB1413-421 peptide] | 72 ° C.
